This is an account of results in PMC3852489.

This assay deals with S377-588-Fc (residues 377-588 of MERS-CoV spike protein fused with human IgG Fc) (MERS-CoV) (UniProt K9N5Q8). Description: SDS-PAGE of non-boiled against boiled sample.

As to “S377-588-Fc (residues 377-588 of MERS-CoV spike protein fused with human IgG Fc) (from UniProt K9N5Q8 377-588) (Fc fusion)”, the stoichiometry N is 2.

One may read the stoichiometry N as a count of units in the complex or per binding partner.
